From PMC8610301 (Current Research in Microbial Sciences, 2021)
Read-outs that look alike come from different tables or passages of the source.

B1: recombinant Cas2 of Leptospira interrogans (LinCas2) (enzyme, UniProt Q8F1F4 1-94, looked up)
chain: MKHWRLVSYDIREPKRLRRVAKIMEGFGERIQYSVFRIYSTDKELEKLRWKLAKVTEEEDNIFYLTLCTKCASGAHTQEKKSAWPEAPKTLKIL
B2: native LinCas2 in the lysate of L. interrogans serovar Copenhageni (natural protein, UniProt Q8F1F4 1-94, looked up)
chain: B1 chain

Experiments:
[1] = molecular target: the molecule itself; test: immunoblot after SDS-PAGE
[2] = molecular target: the molecule itself; test: immunoblot after SDS-PAGE; remark: listed apart in the source

Protein | stoichiometry N [1] | stoichiometry N [2]
B1 | 2 | –
B2 | – | 2
